# Article doi:10.1101/2022.02.01.475276
# B1: SRE (dsDNA)
# DNA 1: AAAAGGTACGTGACCAAAAAGA
# DNA 2: TCTTTTTGGTCACGTACCTTTT
# B2: HRE (C/C) (dsDNA)
# DNA 1: AGGCTGCGTACGTGCGGGTCGT
# DNA 2: ACGACCCGCACGTACGCAGCCT
# B3: NRE (dsDNA)
# DNA 1: AAATGAGTCGTGACCAAAAATT
# DNA 2: AATTTTTGGTCACGACTCATTT
# Assays:
# Test in all cases: EMSA
# [1] = molecular target: SIM1;ARNT2 (SIM1 partner) (;, UniProt P81133;Q9HBZ2 1-348;1-455, |)
# [2] = molecular target: HIF2a;ARNT (HIFa partner) (human;human, UniProt Q99814;P27540 1-353;1-503, |)
# [3] = molecular target: HIF1a;ARNT (HIFa partner) (human?;human, UniProt Q16665;P27540 1-375;1-503, |)
# [4] = molecular target: NPAS4;ARNT2 (NPAS4 partner) (mouse;mouse, UniProt Q8BGD7;Q61324 1-329;1-481, |)
# Chain of NPAS4;ARNT2 (NPAS4 partner) (Q8BGD7 1-329, chain 1 of 2): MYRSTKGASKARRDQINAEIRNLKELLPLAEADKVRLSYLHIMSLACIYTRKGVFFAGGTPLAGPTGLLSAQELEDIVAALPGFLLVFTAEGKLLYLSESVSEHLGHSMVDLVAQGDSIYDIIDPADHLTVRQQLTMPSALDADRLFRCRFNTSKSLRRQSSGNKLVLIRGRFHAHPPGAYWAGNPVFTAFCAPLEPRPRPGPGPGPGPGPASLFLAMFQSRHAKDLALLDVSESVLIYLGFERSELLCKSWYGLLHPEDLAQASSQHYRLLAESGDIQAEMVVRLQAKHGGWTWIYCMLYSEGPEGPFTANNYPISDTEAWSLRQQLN
# Chain of NPAS4;ARNT2 (NPAS4 partner) (Q61324 1-481, chain 2 of 2): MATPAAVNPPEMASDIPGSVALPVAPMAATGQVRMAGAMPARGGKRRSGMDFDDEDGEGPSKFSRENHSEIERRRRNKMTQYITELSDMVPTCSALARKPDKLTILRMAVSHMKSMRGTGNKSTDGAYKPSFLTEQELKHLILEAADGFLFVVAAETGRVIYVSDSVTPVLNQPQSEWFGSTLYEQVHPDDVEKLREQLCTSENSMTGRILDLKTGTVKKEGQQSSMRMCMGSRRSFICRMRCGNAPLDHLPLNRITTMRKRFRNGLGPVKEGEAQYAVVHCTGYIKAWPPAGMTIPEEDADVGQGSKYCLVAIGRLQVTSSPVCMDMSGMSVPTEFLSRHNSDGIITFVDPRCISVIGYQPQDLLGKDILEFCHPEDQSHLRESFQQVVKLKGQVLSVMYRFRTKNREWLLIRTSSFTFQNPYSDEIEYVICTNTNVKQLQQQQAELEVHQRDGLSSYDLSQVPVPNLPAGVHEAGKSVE
# Chain of SIM1;ARNT2 (SIM1 partner) (P81133 1-348, chain 1 of 2): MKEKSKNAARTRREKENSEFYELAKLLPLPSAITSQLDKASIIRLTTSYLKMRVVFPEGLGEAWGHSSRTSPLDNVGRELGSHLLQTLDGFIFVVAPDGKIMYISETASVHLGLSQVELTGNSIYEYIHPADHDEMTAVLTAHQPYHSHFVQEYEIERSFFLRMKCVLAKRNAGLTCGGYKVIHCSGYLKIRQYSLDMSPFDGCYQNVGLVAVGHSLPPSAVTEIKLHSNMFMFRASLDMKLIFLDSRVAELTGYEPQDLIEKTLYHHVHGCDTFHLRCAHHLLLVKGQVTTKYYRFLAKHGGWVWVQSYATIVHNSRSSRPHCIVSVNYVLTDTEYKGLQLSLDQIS
# Chain of SIM1;ARNT2 (SIM1 partner) (Q9HBZ2 1-455, chain 2 of 2): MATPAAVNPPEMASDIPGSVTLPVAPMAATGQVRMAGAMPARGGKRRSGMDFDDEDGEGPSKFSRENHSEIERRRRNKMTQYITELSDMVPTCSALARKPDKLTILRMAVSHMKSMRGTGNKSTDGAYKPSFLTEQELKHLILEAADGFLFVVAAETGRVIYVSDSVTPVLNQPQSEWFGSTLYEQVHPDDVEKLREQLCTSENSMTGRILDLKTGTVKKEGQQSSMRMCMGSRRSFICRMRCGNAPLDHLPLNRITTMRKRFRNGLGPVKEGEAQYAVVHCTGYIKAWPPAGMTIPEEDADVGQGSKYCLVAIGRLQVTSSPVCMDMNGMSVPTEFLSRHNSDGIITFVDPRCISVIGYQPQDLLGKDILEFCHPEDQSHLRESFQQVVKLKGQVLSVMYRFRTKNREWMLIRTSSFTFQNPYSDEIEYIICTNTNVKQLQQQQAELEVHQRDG
# Chain of HIF2a;ARNT (HIFa partner) (Q99814 1-353, chain 1 of 2): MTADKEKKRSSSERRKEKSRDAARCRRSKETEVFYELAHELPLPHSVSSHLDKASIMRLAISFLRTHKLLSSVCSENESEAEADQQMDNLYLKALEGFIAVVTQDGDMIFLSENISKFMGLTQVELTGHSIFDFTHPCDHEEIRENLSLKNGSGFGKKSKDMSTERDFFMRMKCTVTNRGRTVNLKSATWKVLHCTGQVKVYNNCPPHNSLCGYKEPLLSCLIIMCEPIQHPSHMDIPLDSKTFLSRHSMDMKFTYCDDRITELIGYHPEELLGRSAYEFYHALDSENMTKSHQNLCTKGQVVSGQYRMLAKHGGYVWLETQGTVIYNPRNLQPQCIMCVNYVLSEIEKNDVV
# Chain of HIF2a;ARNT (HIFa partner) (P27540 1-503, chain 2 of 2): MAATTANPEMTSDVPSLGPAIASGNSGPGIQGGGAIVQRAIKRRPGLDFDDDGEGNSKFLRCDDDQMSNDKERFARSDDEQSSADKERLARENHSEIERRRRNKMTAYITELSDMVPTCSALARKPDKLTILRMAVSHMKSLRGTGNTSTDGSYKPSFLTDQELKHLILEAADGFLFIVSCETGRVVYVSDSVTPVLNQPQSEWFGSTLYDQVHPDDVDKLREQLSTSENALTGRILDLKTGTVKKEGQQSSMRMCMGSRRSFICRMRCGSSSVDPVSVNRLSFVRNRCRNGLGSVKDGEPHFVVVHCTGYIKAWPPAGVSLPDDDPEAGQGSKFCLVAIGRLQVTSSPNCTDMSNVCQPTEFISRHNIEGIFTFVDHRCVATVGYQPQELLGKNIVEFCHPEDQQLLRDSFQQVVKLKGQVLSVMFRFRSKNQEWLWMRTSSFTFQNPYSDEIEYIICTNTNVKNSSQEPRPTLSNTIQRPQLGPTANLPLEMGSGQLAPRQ
# Chain of HIF1a;ARNT (HIFa partner) (P27540 1-503, chain 2 of 2, other chains not shown): as the sequence (P27540 1-503, chain 2 of 2) above
binder,measurement,setting,value
B1,binding result,[1],binds
B2,binding signal,[2],~1 reference (HIF1a/ARNT about 2-fold higher)
same,binding signal,[3],~2 fold higher affinity than HIF2a/ARNT
B3,binding result,[4],binds
